Reference: US20240117018A1

Tests used:
Experiment in all cases: cell-based or functional assay
[1] = target: HIV-1 Env pseudovirus 6041.v3.c23 (HIV-1)
[2] = target: HIV-1 Env pseudovirus 89-F1_2_25 (HIV-1)
[3] = target: HIV-1 Env pseudovirus A07412M1.vrc12 (HIV-1)
[4] = target: HIV-1 Env pseudovirus BJOX009000.02.4 (HIV-1)
[5] = target: HIV-1 Env pseudovirus BJOX010000.06.2 (HIV-1)
[6] = target: HIV-1 Env pseudovirus CNE5 (HIV-1)
[7] = target: HIV-1 Env pseudovirus T251-18 (HIV-1)
[8] = target: Env of HIV-1 pseudovirus 1006_11_C3_1601 (HIV-1)
[9] = target: Env of HIV-1 pseudovirus 9004SS_A3_4 (HIV-1)
[10] = target: Env of HIV-1 pseudovirus Ce0393_C3 (HIV-1)
[11] = target: Env of HIV-1 pseudovirus Ce2010_F5 (HIV-1)
[12] = target: Env of HIV-1 pseudovirus Du156.12 (HIV-1)
[13] = target: Env of HIV-1 pseudovirus Q23.17 (HIV-1)
[14] = target: Env of HIV-1 pseudovirus REJO4541.67 (HIV-1)
[15] = target: Env of HIV-1 pseudovirus RHPA4259.7 (HIV-1)
[16] = target: Env of HIV-1 pseudovirus SC05_8C11_2344 (HIV-1)
[17] = target: Env of HIV-1 pseudovirus TRO.11 (HIV-1)
[18] = target: Env of HIV-1 pseudovirus WITO4160.33 (HIV-1)

With 8ANC195 (antibody) the IC50 (Titer in TZM.bl cells) [1] was over 50 µg/mL, the IC80 (Titer in TZM.bl cells) [1] was over 50 µg/mL and the IC50 (Titer in TZM.bl cells) [2] was over 50 µg/mL. The IC80 (Titer in TZM.bl cells) [2] was over 50 µg/mL, the IC50 (Titer in TZM.bl cells) [3] was 2.25 µg/mL and the IC80 (Titer in TZM.bl cells) [3] was 7.49 µg/mL. For the same substance, the IC50 (Titer in TZM.bl cells) [4] was 0.64 µg/mL, the IC80 (Titer in TZM.bl cells) [4] was 3.09 µg/mL and the IC50 (Titer in TZM.bl cells) [5] was 0.85 µg/mL. It also gave an IC80 (Titer in TZM.bl cells) [5] of 5.84 µg/mL, an IC50 (Titer in TZM.bl cells) [6] of 2.12 µg/mL and an IC80 (Titer in TZM.bl cells) [6] of 9.67 µg/mL. The IC50 (Titer in TZM.bl cells) [7] was 1.51 µg/mL and the IC80 (Titer in TZM.bl cells) [7] was 1.51 µg/mL.

PG16 (antibody) showed an IC50 [8] of over 50 µg/mL, an IC80 [8] of over 50 µg/mL and an IC50 [9] of 0.02 µg/mL. It also gave an IC80 [9] of 0.111 µg/mL, an IC50 [10] of 2 ng/mL and an IC80 [10] of 6 ng/mL. It also gave an IC50 [11] of over 50 µg/mL, an IC80 [11] of over 50 µg/mL and an IC50 [12] of 6 ng/mL. For the same substance, the IC80 [12] was 0.026 µg/mL, the IC50 [13] was 8 ng/mL and the IC80 [13] was 0.043 µg/mL. For the same substance, the IC50 [14] was 0.039 µg/mL, the IC80 [14] was 13.4 µg/mL and the IC50 [15] was 0.375 µg/mL. For the same substance, the IC80 [15] was 3.92 µg/mL, the IC50 [16] was 0.07 µg/mL and the IC80 [16] was 1.62 µg/mL. The IC50 [17] was 1.92 µg/mL, the IC80 [17] was 49.6 µg/mL and the IC50 [18] was 2 ng/mL. For the same substance, the IC80 [18] was 0.012 µg/mL.

Substance 3BNC117 (antibody) has an IC50 (Titer in TZM.bl cells) [1] of 0.01 µg/mL, an IC80 (Titer in TZM.bl cells) [1] of 0.07 µg/mL and an IC50 (Titer in TZM.bl cells) [2] of over 50 µg/mL. For the same substance, the IC80 (Titer in TZM.bl cells) [2] was over 50 µg/mL, the IC50 (Titer in TZM.bl cells) [3] was 0.02 µg/mL and the IC80 (Titer in TZM.bl cells) [3] was 0.1 µg/mL. The IC50 (Titer in TZM.bl cells) [4] was 0.4 µg/mL, the IC80 (Titer in TZM.bl cells) [4] was 1.79 µg/mL and the IC50 (Titer in TZM.bl cells) [5] was 1.58 µg/mL. It also gave an IC80 (Titer in TZM.bl cells) [5] of 10.4 µg/mL, an IC50 (Titer in TZM.bl cells) [6] of 0.28 µg/mL and an IC80 (Titer in TZM.bl cells) [6] of 1.28 µg/mL. For the same substance, the IC50 (Titer in TZM.bl cells) [7] was 0.26 µg/mL and the IC80 (Titer in TZM.bl cells) [7] was 0.82 µg/mL.

With VRC07 (antibody) the IC50 (Titer in TZM.bl cells) [1] was 0.018 µg/mL, the IC80 (Titer in TZM.bl cells) [1] was 0.058 µg/mL and the IC50 (Titer in TZM.bl cells) [2] was over 50 µg/mL. The IC80 (Titer in TZM.bl cells) [2] was over 50 µg/mL, the IC50 (Titer in TZM.bl cells) [3] was 0.11 µg/mL and the IC80 (Titer in TZM.bl cells) [3] was 0.353 µg/mL. The IC50 (Titer in TZM.bl cells) [4] was 0.806 µg/mL, the IC80 (Titer in TZM.bl cells) [4] was 2.9 µg/mL and the IC50 (Titer in TZM.bl cells) [5] was 1.06 µg/mL. The IC80 (Titer in TZM.bl cells) [5] was 10 µg/mL, the IC50 (Titer in TZM.bl cells) [6] was 0.138 µg/mL and the IC80 (Titer in TZM.bl cells) [6] was 0.524 µg/mL. The IC50 (Titer in TZM.bl cells) [7] was 1.32 µg/mL and the IC80 (Titer in TZM.bl cells) [7] was 6.49 µg/mL.
